Legend:
Assay in all cases: purified protein
Assay type in all cases: biochemical, Sutcliffiella cohnii
Details in all cases: 50 mM Tris-HCl pH 8.0, 20 °C
purified protein [1] = substrate: CC(=O)Oc1ccc([N+](=O)[O-])cc1
purified protein [2] = substrate: CCCC(=O)Oc1ccc([N+](=O)[O-])cc1
purified protein [3] = substrate: CCCCCC(=O)Oc1ccc([N+](=O)[O-])cc1
purified protein [4] = substrate: CCCCCCCC(=O)Oc1ccc([N+](=O)[O-])cc1

B1: EstN7 (Sutcliffiella cohnii; W206A) (protein)
chain: MKNRIDPELRAMLDMFPPLNLDDVQATRKAMEEAAQLTELPVDEEVVVSNRMVPGPEDNPYVRVRIYEPKEKIEKLPGLLWIHGGGYVLGAPEGDDLLCQRFVKEANCVVVSVDYRLAPEHPYPAPLEDCYAALQWFAKKVDELGVDASRIGVGGQSAGGGLTAALALLARDRKGPELCFQMPLYPMIDDKNNSPSSLEITGNLIANHDLNEKGWSMYLDGKNGTDDVPVHAAPARATDLTNLPYTYTCVGQLDPFRDETLDYVKRLCQAGVDVEFHLYPGAYHGFETLNPAAAVSQRALAEYVGAVKHVLNREKVVERK
notes: recombinant, purified from E. coli BL21(DE3); dimer; catalytic triad S157, D254, H284
Work on B1 yielded a Km (purified protein [1]) of 1300 ± 140 µM, a kcat (purified protein [1]) of 1.5 ± 0.07 s⁻¹ and a kcat/Km (purified protein [1]) of 1190 M⁻¹ s⁻¹. It also gave a Km (purified protein [2]) of 1200 ± 550 µM, a kcat (purified protein [2]) of 8 ± 1 s⁻¹ and a kcat/Km (purified protein [2]) of 6670 M⁻¹ s⁻¹. The Km (purified protein [3]) was 1100 ± 70 µM, the kcat (purified protein [3]) was 3.8 ± 0.07 s⁻¹ and the kcat/Km (purified protein [3]) was 3350 M⁻¹ s⁻¹.

B2: EstN7 (Sutcliffiella cohnii; M187A/N211A) (protein)
chain: MKNRIDPELRAMLDMFPPLNLDDVQATRKAMEEAAQLTELPVDEEVVVSNRMVPGPEDNPYVRVRIYEPKEKIEKLPGLLWIHGGGYVLGAPEGDDLLCQRFVKEANCVVVSVDYRLAPEHPYPAPLEDCYAALQWFAKKVDELGVDASRIGVGGQSAGGGLTAALALLARDRKGPELCFQMPLYPAIDDKNNSPSSLEITGNLIWNHDLAEKGWSMYLDGKNGTDDVPVHAAPARATDLTNLPYTYTCVGQLDPFRDETLDYVKRLCQAGVDVEFHLYPGAYHGFETLNPAAAVSQRALAEYVGAVKHVLNREKVVERK
notes: as for B1
Work on B2 yielded a Km (purified protein [1]) of 1100 ± 70 µM, a kcat (purified protein [1]) of 361 ± 0.14 s⁻¹ and a kcat/Km (purified protein [1]) of 328000 M⁻¹ s⁻¹. The Km (purified protein [2]) was 370 ± 80 µM, the kcat (purified protein [2]) was 17.6 ± 2.1 s⁻¹ and the kcat/Km (purified protein [2]) was 46800 M⁻¹ s⁻¹. It also gave a Km (purified protein [3]) of 1200 ± 10 µM, a kcat (purified protein [3]) of 24.5 ± 0.7 s⁻¹ and a kcat/Km (purified protein [3]) of 20400 M⁻¹ s⁻¹. It also gave a Km (purified protein [4]) of 950 ± 20 µM, a kcat (purified protein [4]) of 0.45 ± 0.02 s⁻¹ and a kcat/Km (purified protein [4]) of 473 M⁻¹ s⁻¹.

B3: EstN7 (Sutcliffiella cohnii) (protein)
chain: MKNRIDPELRAMLDMFPPLNLDDVQATRKAMEEAAQLTELPVDEEVVVSNRMVPGPEDNPYVRVRIYEPKEKIEKLPGLLWIHGGGYVLGAPEGDDLLCQRFVKEANCVVVSVDYRLAPEHPYPAPLEDCYAALQWFAKKVDELGVDASRIGVGGQSAGGGLTAALALLARDRKGPELCFQMPLYPMIDDKNNSPSSLEITGNLIWNHDLNEKGWSMYLDGKNGTDDVPVHAAPARATDLTNLPYTYTCVGQLDPFRDETLDYVKRLCQAGVDVEFHLYPGAYHGFETLNPAAAVSQRALAEYVGAVKHVLNREKVVERK
notes: as for B1
In the case of B3, the Km (purified protein [1]) is reported as 50 ± 7 µM, the kcat (purified protein [1]) is reported as 760 ± 3.5 s⁻¹ and the kcat/Km (purified protein [1]) is reported as 1.52e+07 M⁻¹ s⁻¹. The Km (purified protein [2]) was 57 ± 2 µM, the kcat (purified protein [2]) was 0.32 ± 0.005 s⁻¹ and the kcat/Km (purified protein [2]) was 5610 M⁻¹ s⁻¹.

B4: EstN7 (Sutcliffiella cohnii; N211A) (protein)
chain: MKNRIDPELRAMLDMFPPLNLDDVQATRKAMEEAAQLTELPVDEEVVVSNRMVPGPEDNPYVRVRIYEPKEKIEKLPGLLWIHGGGYVLGAPEGDDLLCQRFVKEANCVVVSVDYRLAPEHPYPAPLEDCYAALQWFAKKVDELGVDASRIGVGGQSAGGGLTAALALLARDRKGPELCFQMPLYPMIDDKNNSPSSLEITGNLIWNHDLAEKGWSMYLDGKNGTDDVPVHAAPARATDLTNLPYTYTCVGQLDPFRDETLDYVKRLCQAGVDVEFHLYPGAYHGFETLNPAAAVSQRALAEYVGAVKHVLNREKVVERK
notes: as for B1
In the case of B4, the Km (purified protein [1]) is reported as 750 ± 1 µM, the kcat (purified protein [1]) is reported as 280.5 ± 0.07 s⁻¹ and the kcat/Km (purified protein [1]) is reported as 374000 M⁻¹ s⁻¹. The Km (purified protein [2]) was 2000 ± 200 µM, the kcat (purified protein [2]) was 15 ± 0.5 s⁻¹ and the kcat/Km (purified protein [2]) was 7500 M⁻¹ s⁻¹. For the same protein, the Km (purified protein [3]) was 370 ± 50 µM, the kcat (purified protein [3]) was 2.3 ± 0.2 s⁻¹ and the kcat/Km (purified protein [3]) was 6280 M⁻¹ s⁻¹.
